{"source": "patent US7381413", "target": "Fas (CD95) on L1210 and L1210/DDP cells (UniProt P25446)", "sequence (P25446 22-327 limits assumed)": "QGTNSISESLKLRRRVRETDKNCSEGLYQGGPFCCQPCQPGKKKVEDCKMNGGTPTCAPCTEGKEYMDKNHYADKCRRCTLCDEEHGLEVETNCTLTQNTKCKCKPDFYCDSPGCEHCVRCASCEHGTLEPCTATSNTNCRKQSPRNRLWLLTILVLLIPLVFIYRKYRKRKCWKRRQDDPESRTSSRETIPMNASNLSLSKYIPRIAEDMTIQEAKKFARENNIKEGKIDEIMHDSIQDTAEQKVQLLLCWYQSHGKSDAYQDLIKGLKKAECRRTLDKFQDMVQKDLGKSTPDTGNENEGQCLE", "test": "cell-based or functional assay", "data": [{"substance": "anti-Fas antibody Jo2.2 (Pharmingen)", "values": [{"measurement": "% dead cells over background of untreated cells, L1210/0 on anti-Fas coated plates", "result": 80, "unit": "%"}, {"measurement": "% dead cells over background of untreated cells, L1210/DDP on anti-Fas coated plates", "result": 46.6, "unit": "%"}]}]}
